{
  "source": "patent US20210268073A1",
  "about": "“METHODS OF REDUCING POLYSORBATE DEGRADATION IN DRUG FORMULATIONS” (Regeneron Pharmaceuticals, Inc., priority 2020, published 2021)",
  "molecules": {"B1": {"name": "human liver carboxylesterase 1: commercial human liver carboxylesterase 1 purchased from Abcam, SEQ ID NO: 12 (protein, listed as Homo sapiens)", "chain": "MWLRAFILATLSASAAWGHPSSPPVVDTVHGKVLGKFVSLEGFAQPVAIFLGIPFAKKPLGPLRFTPPQPAEPWSFVKNATSYPPMCTQDPKAGQLLSELFTNRKENIPLKLSEDCLYLNIYTPADLTKKNRLPVMVWIHGGGLMVGAASTYDGLALAAHENVVVVTIQYRLGIWGFFSTGDEHSRGNWGHLDQVAALRWVQDNIASFGGNPGSVTIFGESAGGESVSVLVLSPLAKNLFHRAISESGVALTSVLVKKGDVKPLAEQIAITAGCKTTTSAVMVHCLRQKTEEELLETTLKMKFLSLDLQGDPRESQPLLGTVIDGMLLLKTPEELQAERNFHTVPYMVGINKQEFGWLIPMQLMSYPLSEGQLDQKTAMSLLWKSYPLVCIAKELIPEATEKYLGGTDDTVKKKDLFLDLIADVMFGVPSVIVARNHRDAGAPTYMYEFQYRPSFSSDMKPKTVIGDHGDELFSVFGAPFLKEGASEEEIRLSKMVMKFWANFARNGNPNGEGLPHWPEYNQKEGYLQIGANTQAAQKLKDKEVAFWTNLFAKKAVEKPPQTEHIEL"}},
  "settings": "pH 6",
  "data": [
    {"molecule": "B1", "values": [
      {"measurement": "PS80 degradation pattern compared with mAb-1", "value": "equivalent degradation pattern"}
    ]}
  ]
}
